Experimental data published in paper PMC10462004.

Target: mouse PD-1 (programmed cell death-1), wild type, expressed on CHO cells (mouse) (UniProt Q02242)
Assay: biomembrane force probe

Chain of UniProt Q02242 (Q02242 25-288): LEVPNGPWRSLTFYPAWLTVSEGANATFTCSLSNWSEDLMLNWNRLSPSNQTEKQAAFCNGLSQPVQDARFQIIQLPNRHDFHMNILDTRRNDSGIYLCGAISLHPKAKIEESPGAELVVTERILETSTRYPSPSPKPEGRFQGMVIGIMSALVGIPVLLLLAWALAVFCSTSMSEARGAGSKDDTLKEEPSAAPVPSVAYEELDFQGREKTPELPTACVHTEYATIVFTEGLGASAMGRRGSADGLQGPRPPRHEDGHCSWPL

mouse PD-L2 with C-terminal biotin (from UniProt Q9WUL5 20-221) (ligand)
F1/2 (force at which 50% of the bonds rupture): 12.1 pN
